The target in this experiment is Vrl1-Envy (S. cerevisiae). Description: co-IP.

B1: Vin1-3HA (natural protein)
chain: MENDKASHASPSIGVNEFVVQGEISIDDSERSVKSVSVSISDDEDSKTDVQDNMATPSTRSKFQTDLAIDNRLLEKDPKYKKLFTEKRRRRRPESCINLMTKGKGTGQKDNINDQIFSLRILPGSDLNSLKDSLWIIKISTQPDVEKTIARAFSDFYWLYHQLQNNHWGKTIPPPTRSNILVEKDEFAINHLFMIRNNEKYDPIFNFKPEYIISLQLMAMIKHIFNDKVLRLDSNFIDFISWDDDLPESLQIVVDDSTFTGDKILMTSSQFRELKEFHKQSKKVESITNSHASLIPVTELTEIYISPTKLFSRKDYQRLFQPQSTDNTFNNNDPLIQEWIPKSKTLFTSLSFGSSAPTYQEASTEIQACHDWVSISKEQWKQLLYHVLQYIVDEAVKVNSVINEFTECLKQISLDEVIRANSELFLKFSKLNESFLKKFKGASRQDILKLIILFDENVRFCESFESILNQRLKLGKILSIIEVDLDKKKNFLDKLSPGNNNSNNEDLKIRTAEDEYRIVLKRYNRVKQSWEKIMEDILNERKEFEKREAAEVNSCLKSIRDLNMDEKKHYLQLWQDFVPDEHISQ
Take B1: the recovery of Vin1 in the co-IP turned out to be 64%.

For the origin of these results see publication doi:10.1101/2021.11.29.470412.
